This passage reports Kd results from patent publication US20060228349A1 (published 2006).

The target of assay [1] is T1, Biotinylated ADDL preparations (bADDLs) (N-terminal biotin).
T1 construct: Oligomer, number of copies not fixed; also called biotinylated ADDL antigen; high molecular weight 10% bADDL
Description: BIACORE, bADDL as antigen; column IgG1#1.

Assay [2] deals with T1, Biotinylated ADDL preparations (bADDLs). Nature of the assay: BIACORE, bADDL as antigen; column IgG1#2. In general terms: Surface plasmon resonance follows binding to a sensor surface in real time, without labels.
The target of assay [3] is T2, biotin-Aβ1-20 (biotin (position not given)).
T2 peptide: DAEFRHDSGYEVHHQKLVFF
Description: BIACORE, biotin-Aβ1-20 as antigen; column IgG1#1.

Assay [4] addresses T2, biotin-Aβ1-20. Nature of the assay: BIACORE, biotin-Aβ1-20 as antigen; column IgG1#2.
The target of assay [5] is T1, Biotinylated ADDL preparations (bADDLs). Description: BIACORE, bADDL as antigen; column Fab.
For assay [6], the target named is T2, biotin-Aβ1-20. Nature of the assay: BIACORE, biotin-Aβ1-20 as antigen; column Fab.

B1: 20C2-2A, affinity matured humanized 20C2, IgG1 humanized A version (antibody, V domains shown)
VH: QVTLKESGPALVKPTQTLTLTCTFSGFSLSTSGMGVGWIRQPPGKALEWLAHIWWDDDKSYNPSLKSRLTISKDTSKNQVVLTMTNMDPVDTATYYCARRQLGLRSIDAMDYWGQGTTVTVSS
VL: DVVMTQSPLSLPVTPGEPASISCRSSQSILHSNGNTYLEWYLQKPGQSPQLLIYKVSNRFSGVPDRFSGSGSGTDFTLKISRVEAEDVGVYYCFQATRVPLTFGQGTKLEIKR
notes: also called SJ-p1-18
In general, Kd refers to the free concentration of one partner at which half of the binding sites on the other are occupied at equilibrium, for simple one-to-one binding. A low value points to higher affinity. With B1, the dissociation constant Kd in assay [1] turned out to be 0.015 nM; in assay [2] it was 0.0003 nM; with biotin-Aβ1-20 [3], 0.686 nM; in the assay with biotin-Aβ1-20 [4], 2 nM.

B2: 20C2-6A Fab fragment (clone 4P1-22) (Fab, V domains shown)
VH: QVTLKESGPALVKPTQTLTLTCTFSGFSLSTSGMGVGWIRQPPGKALEWLAHIWWDDDKSYNPSLKSRLTISKDTSKNQVVLTMTNMDPVDTATYYCARRQLGLRSIDAMDYWGQGTTVTVSS
VL: DVVMTQSPLSLPVTPGEPASISCRSSQSILHSNGNTYLEWYLQKPGQSPQLLIYKVSNRFSGVPDRFSGSGSGTDFTLKISRVEAEDVGVYYCFQSSRVPLTFGQGTKLEIKR
In the case of B2, the Kd in assay [5] came out at 42 nM; with biotin-Aβ1-20 [6] it was 18 nM.

B3: 20C2-5A Fab fragment (clone SJ-p2-1F) (Fab, V domains shown)
VH: QVTLKESGPALVKPTQTLTLTCTFSGFSLSTSGMGVGWIRQPPGKALEWLAHIWWDDDKSYNPSLKSRLTISKDTSKNQVVLTMTNMDPVDTATYYCARRQLGLRSIDAMDYWGQGTTVTVSS
VL: DVVMTQSPLSLPVTPGEPASISCRSSQSILHSNGNTYLEWYLQKPGQSPQLLIYKVSNRFSGVPDRFSGSGSGTDFTLKISRVEAEDVGVYYCFQSSFVPLTFGQGTKLEIKR
Take B3: the dissociation constant (Kd) (in assay [5]; with biotin-Aβ1-20 [6]) was 41 nM in each case.

B4: 20C2-9A, affinity matured humanized 20C2, IgG1 humanized A version (antibody, V domains shown)
VH: QVTLKESGPALVKPTQTLTLTCTFSGFSLSTSGMGVGWIRQPPGKALEWLAHIWWDDDKSYNPSLKSRLTISKDTSKNQVVLTMTNMDPVDTATYYCARRQLGLRSIDAMDYWGQGTTVTVSS
VL: DVVMTQSPLSLPVTPGEPASISCRSSQSILHSNGNTYLEWYLQKPGQSPQLLIYKVSNRFSGVPDRFSGSGSGTDFTLKISRVEAEDVGVYYCVQTSLVPLTFGQGTKLEIKR
notes: also called SJ-p2-51
B4: the equilibrium dissociation constant (Kd) in assay [2] came out at 0.002 nM; with biotin-Aβ1-20 [3] it was 0.241 nM; in the assay with biotin-Aβ1-20 [4], 0.42 nM.

B5: 20C2-23A, affinity matured humanized 20C2, IgG1 humanized A version (antibody, V domains shown)
VH: QVTLKESGPALVKPTQTLTLTCTFSGFSLSTSGMGVGWIRQPPGKALEWLAHIWWDDDKSYNPSLKSRLTISKDTSKNQVVLTMTNMDPVDTATYYCARRQLGLRSIDAMDYWGQGTTVTVSS
VL: DVVMTQSPLSLPVTPGEPASISCRSSQSILHSNGNTYLEWYLQKPGQSPQLLIYKVSNRFSGVPDRFSGSGSGTDFTLKISRVEAEDVGVYYCHQSSKVPLTFGQGTKLEIKR
notes: also called 4P1-40
In the case of B5, the equilibrium dissociation constant (Kd) came out at 0.085 nM in assay [1], 0.066 nM in assay [2], 0.649 nM with biotin-Aβ1-20 [3] and 1.5 nM with biotin-Aβ1-20 [4].

B6: 20C2-13A Fab fragment (clone 4p1-20) (Fab, V domains shown)
VH: QVTLKESGPALVKPTQTLTLTCTFSGFSLSTSGMGVGWIRQPPGKALEWLAHIWWDDDKSYNPSLKSRLTISKDTSKNQVVLTMTNMDPVDTATYYCARRQLGLRSIDAMDYWGQGTTVTVSS
VL: DVVMTQSPLSLPVTPGEPASISCRSSQSILHSNGNTYLEWYLQKPGQSPQLLIYKVSNRFSGVPDRFSGSGSGTDFTLKISRVEAEDVGVYYCLQTSNVPLTFGQGTKLEIKR
As to B6, the Kd in assay [5] worked out at 567 nM; with biotin-Aβ1-20 [6], 94 nM.

B7: 20C2-9A Fab fragment (clone SJ-p2-51) (Fab, V domains shown)
VH: QVTLKESGPALVKPTQTLTLTCTFSGFSLSTSGMGVGWIRQPPGKALEWLAHIWWDDDKSYNPSLKSRLTISKDTSKNQVVLTMTNMDPVDTATYYCARRQLGLRSIDAMDYWGQGTTVTVSS
VL: DVVMTQSPLSLPVTPGEPASISCRSSQSILHSNGNTYLEWYLQKPGQSPQLLIYKVSNRFSGVPDRFSGSGSGTDFTLKISRVEAEDVGVYYCVQTSLVPLTFGQGTKLEIKR
With B7, the values for the Kd (in assay [5]; with biotin-Aβ1-20 [6]) were 40 nM and 36 nM, respectively.

B8: 20C2-12A Fab fragment (clone 4P1-32) (Fab, V domains shown)
VH: QVTLKESGPALVKPTQTLTLTCTFSGFSLSTSGMGVGWIRQPPGKALEWLAHIWWDDDKSYNPSLKSRLTISKDTSKNQVVLTMTNMDPVDTATYYCARRQLGLRSIDAMDYWGQGTTVTVSS
VL: DVVMTQSPLSLPVTPGEPASISCRSSQSILHSNGNTYLEWYLQKPGQSPQLLIYKVSNRFSGVPDRFSGSGSGTDFTLKISRVEAEDVGVYYCLQSSLVPLTFGQGTKLEIKR
B8: the results for the Kd (in assay [5]; in the assay with biotin-Aβ1-20 [6]) were 238 nM and 617 nM, respectively.

B9: 20C2-7A Fab fragment (clone SJ-p2-27) (Fab, V domains shown)
VH: QVTLKESGPALVKPTQTLTLTCTFSGFSLSTSGMGVGWIRQPPGKALEWLAHIWWDDDKSYNPSLKSRLTISKDTSKNQVVLTMTNMDPVDTATYYCARRQLGLRSIDAMDYWGQGTTVTVSS
VL: DVVMTQSPLSLPVTPGEPASISCRSSQSILHSNGNTYLEWYLQKPGQSPQLLIYKVSNRFSGVPDRFSGSGSGTDFTLKISRVEAEDVGVYYCLNSTTVPLTFGQGTKLEIKR
Regarding B9, the dissociation constant Kd was determined as 435 nM in assay [5] and 128 nM with biotin-Aβ1-20 [6].

B10: 20C2-18A Fab fragment (clone SJ-p1-9M) (Fab, V domains shown)
VH: QVTLKESGPALVKPTQTLTLTCTFSGFSLSTSGMGVGWIRQPPGKALEWLAHIWWDDDKSYNPSLKSRLTISKDTSKNQVVLTMTNMDPVDTATYYCARRQLGLRSIDAMDYWGQGTTVTVSS
VL: DVVMTQSPLSLPVTPGEPASISCRSSQSILHSNGNTYLEWYLQKPGQSPQLLIYKVSNRFSGVPDRFSGSGSGTDFTLKISRVEAEDVGVYYCMQSSFVPLTFGQGTKLEIKR
As for B10, the dissociation constant (Kd) in assay [5] is 85 nM; in the assay with biotin-Aβ1-20 [6], 126 nM.

B11: 20C2-8A, affinity matured humanized 20C2, IgG1 humanized A version (antibody, V domains shown)
VH: QVTLKESGPALVKPTQTLTLTCTFSGFSLSTSGMGVGWIRQPPGKALEWLAHIWWDDDKSYNPSLKSRLTISKDTSKNQVVLTMTNMDPVDTATYYCARRQLGLRSIDAMDYWGQGTTVTVSS
VL: DVVMTQSPLSLPVTPGEPASISCRSSQSILHSNGNTYLEWYLQKPGQSPQLLIYKVSNRFSGVPDRFSGSGSGTDFTLKISRVEAEDVGVYYCLQTTRVPLTFGQGTKLEIKR
notes: also called SJ-p2-39
Turning to B11, the dissociation constant Kd in assay [1] worked out at 0.003 nM; in assay [2], 0.0007 nM; with biotin-Aβ1-20 [3], 0.14 nM; with biotin-Aβ1-20 [4], 0.376 nM.

B12: 20C2-5A, affinity matured humanized 20C2, IgG1 humanized A version (antibody, V domains shown)
VH: QVTLKESGPALVKPTQTLTLTCTFSGFSLSTSGMGVGWIRQPPGKALEWLAHIWWDDDKSYNPSLKSRLTISKDTSKNQVVLTMTNMDPVDTATYYCARRQLGLRSIDAMDYWGQGTTVTVSS
VL: DVVMTQSPLSLPVTPGEPASISCRSSQSILHSNGNTYLEWYLQKPGQSPQLLIYKVSNRFSGVPDRFSGSGSGTDFTLKISRVEAEDVGVYYCFQSSFVPLTFGQGTKLEIKR
notes: also called SJ-p2-1F
As to B12, the Kd in assay [1] was determined as 0.317 nM; in assay [2], 0.068 nM; with biotin-Aβ1-20 [3] it was 0.912 nM; with biotin-Aβ1-20 [4], 1.5 nM.

B13: 20C2-1A Fab fragment (clone SJ-p2-60) (Fab, V domains shown)
VH: QVTLKESGPALVKPTQTLTLTCTFSGFSLSTSGMGVGWIRQPPGKALEWLAHIWWDDDKSYNPSLKSRLTISKDTSKNQVVLTMTNMDPVDTATYYCARRQLGLRSIDAMDYWGQGTTVTVSS
VL: DVVMTQSPLSLPVTPGEPASISCRSSQSILHSNGNTYLEWYLQKPGQSPQLLIYKVSNRFSGVPDRFSGSGSGTDFTLKISRVEAEDVGVYYCFQASRVPLTFGQGTKLEIKR
As to B13, the figures for the dissociation constant (Kd) (in assay [5]; with biotin-Aβ1-20 [6]) were 85 nM and 91 nM, respectively.

B14: 20C2-8A Fab fragment (clone SJ-p2-39) (Fab, V domains shown)
VH: QVTLKESGPALVKPTQTLTLTCTFSGFSLSTSGMGVGWIRQPPGKALEWLAHIWWDDDKSYNPSLKSRLTISKDTSKNQVVLTMTNMDPVDTATYYCARRQLGLRSIDAMDYWGQGTTVTVSS
VL: DVVMTQSPLSLPVTPGEPASISCRSSQSILHSNGNTYLEWYLQKPGQSPQLLIYKVSNRFSGVPDRFSGSGSGTDFTLKISRVEAEDVGVYYCLQTTRVPLTFGQGTKLEIKR
On to B14, for which the dissociation constant (Kd) in assay [5] is 13 nM; in the assay with biotin-Aβ1-20 [6] it was 14 nM.

B15: 20C2-8B, affinity matured humanized 20C2, IgG1 humanized B version (antibody, V domains shown)
VH: QVTLKESGPALVKPTQTLTLTCTLSGFSLSTSGMGVGWIRQPPGKALEWLAHIWWDDDKSYNPSLKSRLTISKDTSKNQVVLTMTNMDPVDTATYYCARRQLGLRSIDAMDYWGQGTTVTVSS
VL: DVVMTQSPLSLPVTPGEPASISCRSSQSILHSNGNTYLEWYLQKPGQSPQLLIYKVSNRFSGVPDRFSGSGSGTDFTLKISRVEAEDVGVYYCLQTTRVPLTFGQGTKLEIKR
notes: also called SJ-p2-39
Consider B15, for which the Kd in assay [1] was 0.013 nM; in assay [2] it was 0.0008 nM; in the assay with biotin-Aβ1-20 [3], 0.046 nM; in the assay with biotin-Aβ1-20 [4], 0.064 nM.

B16: 20C2-6A, affinity matured humanized 20C2, IgG1 humanized A version (antibody, V domains shown)
VH: QVTLKESGPALVKPTQTLTLTCTFSGFSLSTSGMGVGWIRQPPGKALEWLAHIWWDDDKSYNPSLKSRLTISKDTSKNQVVLTMTNMDPVDTATYYCARRQLGLRSIDAMDYWGQGTTVTVSS
VL: DVVMTQSPLSLPVTPGEPASISCRSSQSILHSNGNTYLEWYLQKPGQSPQLLIYKVSNRFSGVPDRFSGSGSGTDFTLKISRVEAEDVGVYYCFQSSRVPLTFGQGTKLEIKR
notes: also called 4P1-22
For the molecule B16, the Kd in assay [1] is 0.0043 nM; in assay [2], 0.024 nM; with biotin-Aβ1-20 [3], 0.544 nM; with biotin-Aβ1-20 [4], 0.714 nM.

B17: 20C2-2A Fab fragment (clone SJ-p1-18) (Fab, V domains shown)
VH: QVTLKESGPALVKPTQTLTLTCTFSGFSLSTSGMGVGWIRQPPGKALEWLAHIWWDDDKSYNPSLKSRLTISKDTSKNQVVLTMTNMDPVDTATYYCARRQLGLRSIDAMDYWGQGTTVTVSS
VL: DVVMTQSPLSLPVTPGEPASISCRSSQSILHSNGNTYLEWYLQKPGQSPQLLIYKVSNRFSGVPDRFSGSGSGTDFTLKISRVEAEDVGVYYCFQATRVPLTFGQGTKLEIKR
Regarding B17, the Kd (in assay [5]; in the assay with biotin-Aβ1-20 [6]) was 28 nM throughout.
